# Data: patent publication US20230226096A1 (Orna Therapeutics, Inc., priority 2020, published 2023)
# System: HEK293 cells
# Assay type: cell-based, human
# Settings: luminescence from secreted Gluc in supernatant 24 hours after transfection of HEK293 cells; circular RNA encoding Gluc with the named IRES (UTR truncated to 675 nt)
row,Molecule,Expression
1,Breda virus (nucleic acid) DNA: ATCACCTAGTACTTACAAGCGGGTCAAACCGCCCTCCGGAACGGTCATAACCCCCTCCCGAACGTGCGCTTGACGTGACTGGTCTTTCAGTCTAGCTTTCTGAGAAATACTCCGGGGTTGTAACCCACCATTTTGACCTTTGGTCAGTTTGGTAACACTCCAACCAAACAGCATCTGACCCACCTCCAGCTTGCTGCAGGCCATTTGGACCAAACGGGTTCAGATATCTTGTGGCTAAACCTCTGACCCACCTCCAGTTTACTGCAGGCCTTTTGGACTAAACGGGTACAGACTCTTTGTGGTTAGTTTTTAACTACCCACTGTTTAGCCGCCAACCTGATTTTTATTGTTACAAAATTTTGTGTTTACACATTATTTTCTTACGGTTGGCAGTTTGTTTGGTTGTTTGCACAGTTTTTGCTGATACCAATTTTTACTGTGCTTTTGGTGTTTTCGGCTAAGGCTGTTTTTCACATACTTAGTTTGCTTGAAGTAACCTTCACAACATCTGTTTTGTTTTTGGTTTCTAAGGTAAAGAGTTTCAGGAAAAAACATAGGCGCCCATCTTGTGGTGTCTAGTTTTAATTAATCTGGCAAACAAGTATCAAGTCATCGACTCCCTTTGGAGTGAGACTTACGAGTACCAATTCGCCTATTTTGGCCATCCATATAAAA,1.16E+05
2,"Bovine rhinitis A virus (nucleic acid, Bovine rhinitis A virus) DNA: TTTTGCGGCTCTGCCGCCGTTCGGGTTTTACCTGTTTTCACAGAGCAAAACAGGACCTCTAGTTTCGTGCTTAAACGAGATCATGCTCGAACTAGAACTATAACGCTGGTCACTGGACCCGTGCCGCGCCTTGCGGATCTTTGCGGGAATGGTGGCTAGTGGGCTGTGGAAGTGACTCTAACCACACGCCCCTCAAGTGTGGGAAAACACGAACTGGTGTAGCGACGACGATAGGCCTTGGGACACCCTCTCCAGTGATGGAGACCCAAGGGGCCAAAAGCCACGCCTTGTGCCCTGTCGTTCACAACCCCAGTGCAGTTCGTGCCAGTACCTGCTTTTGGGAAGTGTGCTTTGGACAGCTGAAAACAGTCCTAGTGGGAGACTAAGGATGCCCAGGAGGTACCCGGAGGTAACAAGTGACACTCTGGATCTGACTTGGGGAGAGCGGGTCTGCTTTACAGACGCCACTCTTTAAAAAACTTCTATGTCTCGTCAGGCACCGGAGGCCGGGCCTTTTCCTTTAAAACAATACACTTT",3.62E+06
3,Bovine picornavirus isolate TCH6 (nucleic acid) DNA: TTGGATCTGAGCAGGGGCCCCCTTTGGGTTGCTTTACAACTCAACTGGGGGTTAAAAAACGTCTAACCCGACACGCCAGAGGGATCTGGTTTCCTTTTATTTCTTTTACTCACCACTGGATGCAGATTGACGATAAACGTTGTTGTTTGTGACTATTGACTTGATCTGCTTCTACGGGTTTACTTTCACTGTTATACTTCTTGCTTTGTTTGGTGTTCACTGTACTTTGTCTCCTTCTACATTTCACA,1.21E+05
4,"Rafivirus LPXYC222841 (nucleic acid, listed as Rafivirus sp.) DNA: GTGTCCGGGAAGCGACTCAAGCTTTTGACTGAGTCTCTACACCTTCATCCGTAACATCTTTAAGTTTATGTGCCTATGGACCTCTAGTGCACTGCCATCACCGGGGGTGTATTGGACTGGTTTTTCCACAATCCATTCATCCTGAGGAATTTTGGCTTTGTTACTAGGATGGTCCCACCACACGCTTATCTGTGCCTATTGTGTCAACCATGTTCTTAAGTAGTTGTGCCCGTGGGTGAGTAGATAACCACAACAATCCGATAAAGCATCTCGCAAGGATGTGAGTAATGGAGTGTATGTGCTACAGAGACCCACAACCTGAACCAAGAGAGACACAGTGAGGATTGTAAAGGGGGAACTCTTTGAAAGGGCATGTCCCGCAATTCCTACTGACTGACACCGGGGGTTGGTGTCGGTGGATTTTAGCAAATCCTGTTACTGGGTGATAGCCTTGTGCACTTCACTTGGTTCTTGTATAAGTGCTGTA",2.22E+05
5,"Boone cardiovirus 1 (nucleic acid, listed as Cardiovirus sp.) DNA: TACGATCGCTGTACATTCCACTACTGCCAATTAGCTCCCCCTTCCCGTTGCTCCCCTCTATAAGGAGAGCCTTCTCTTGCAAAGGTGAAGCCTTCACCCCCGGTCGAAGCCGCTTGGAATAAGACAGGGTTATTTTCTCCTCTCCTCGGCGCTTGCCTCTTCTAAGCTGAATAGGTTCTATCTATTCAGGCGGATGGTCTGGTCCGTTCCTTCTTGGACAGAGTGTGTATCTGGGTTTTCCGGATCTCGACCACACACTCACCAGAGCTCAGGAGTGATTAAGTCAAGGCCCGATCTGCGGCGAAAAGGAAATGAAGTATTTTGCAGCTGTAGCGACCTCTCAAGGCCAGCGGATTTCCCCACCTGGTGACAGGTGCCTCTGGGGCCAAAAGCCACGTGTTAATAGCACCCTTGAGAGCGGTGGTACCCCACCACCCTGCAAATTATGGATTTGACTTAGTAACTAAAAGATTGACTTGGCATACCTCAACCTGAGCGGCGGCTAAGGATGCCCTGAAGGTACCCGTGTTGAAATCGCTTCGGCGACCATGGATCTGATCAGGGGCCCTGCCTGGAGTGGTTCTATCCCACACAGCGTAGGGTTAAAAAACGTCTAACCGCCCCACAAAGACCCCGGCAGGGATGCCGGTTTCCTTTTTACCAATTCTTGACACT",2.62E+06
6,"Bat Iflavirus (nucleic acid, listed as Iflavirus sp.) DNA: ACGAATCGGTATACGCTTCGGTACCTATTGTTGCAAGTTCGTTCCCTATTTTCGATTTGCCTGCCCGAATTTGACTCAAACAATTGTGACATACTATGTCTCTGTTTGAAAGCACTACACGAGTTTGCGCCCAGCATGTATGTTTTCAAGTCTTTTGTATAAGTCTGCCTCTATAGTGGTTTTCTTTGACCTTAAAGCCTTGTCAACCATCCTATATGCTGCATCGAGACTTGATGTCAATCTGCCTCTACTACGCAAATGTCTAGTAATTAGTTATAAGGTTTTACTATTTTCCCTCATTTCCAATTTTAGTTTGTAGTGTATGTGAGTATCATTCTTACTCCGACTGTTAAGAGAAACCAATTTATAGTCGTTAAATATGATAAATGGAATGAATGATGGTGTCATTTTAAAAACACTCTTCTCTATAGGCGTAAGCATTCTCGCTCTTAGAGTCGTAAAGAAGAAATGCCGTGTCTATCAGTATGTTATGCGATTTATTTTCTGCCACGCGCTTCTAGTGCAATCTAGTTGACATACAGACATTGCCTACCACTCGCGAGGGTCGACCGGTAGTGTAAGGAGTAAGTGATGATTTCCGCTTATTCTGTACCCTTTGCCTGGTGAGGACAGATCCTGACTAATTTTAAATATAAATGAACACTAGCTTCCAAG",9.76E+04
7,Bovine viral diarrhea virus 3 (nucleic acid) DNA: GTATACGCCCAGTTAGTTCAGGTGGACGTGTACGATTGGGTATCCCAAATTAATAATTTGGTTTAGGGACTAAATCCCCTGGCGAAGGCCGAAACAGGTTAACCATACCTTTAGTAGGACGAGCATAATGGGGGACTAGTGGTGGCAGTGAGCTCCCTGGATCACCGAAGCCCCGAGTACGGGGTAGTCGTCAATGGTTCGACGCATCAAGGAATGCCTCGAGATGCCATGTGGACGAGGGCGTGCCCACGGTGTATCTTAACCCAGGCGGGGGCCGCTTGGGTGAAATAGGGTTGTTATACAAGCCTTTGGGAGTACAGCCTGATAGGGTGTTGCAGAGACCTGCTACACCACTAGTATAAAAACTCTGCTGTACATGGCAC,2.70E+06
8,Bat dicibavirus (nucleic acid) DNA: GTATAGCACCGGAATGGTATTTTACTACTCCAAGTATACGTACTAGGAGTTAAACCCTGTAATTTACAGGGGATTTAGTGACTTTTATCCGTAAAAGTCGATTGGACGTTAATCGGTAACGAGGCCAAGTACCGTGAACCAATTTAAAAACGTATTTTCTCATGTGGTAGAACCAACTTGGAAATAGCATGGCATATAGGTTGTTTAGGG,7.43E+04
